Laboratory results reported in patent publication US20110250284A1, “Nanoparticles for Use as Synthetic Platelets and Therapeutic Agent Delivery Vehicles” (priority 2008, published 2011).

System: NSCs
Assay: NSC behavior cultured near hydrogels with CNTF delivery component
Type: cell-based
Conditions: seven days
Experimental: NSCs were positive for green fluorescent protein (GFP) and were maintained in high glucose DMEM/F12 (1:1) supplemented with 20 ng/mL mouse epidermal growth factor (EGF), N-2, B-27, penicillin/streptomycin, and L-glutamine.
To test the response of NSCs cultured near but not directly on or within hydrogels with a CNTF delivery component, NSCs were seeded as neurospheres in chamber slides at a concentration of 5×10^5 cells/mL. A hydrogel containing acrylated nanoparticles encapsulating an estimated 10 ng of CNTF was added to the culture medium. In other experiments a hydrogel containing either blank (BSA-only) nanoparticles, no nanoparticles, or unencapsulated CNTF at 10 ng/mL was added, and no hydrogel was added in the negative control. Throughout the seven days of the experiment, the migration of NSCs out of the neurospheres was measured using the fluorescence of the GFP NSCs. At the end of seven days, all hydrogels were removed. Cells were fixed for analysis in 10% formalin for 1 hour and rinsed in 1× PBS. Differentiation was quantified by immunocytochemistry as described below.
Samples were blocked (3% normal goat serum, 5% BSA, 0.3% TritonX-100) for 1 hour, then rinsed and incubated with primary antibodies against mouse β-III-tubulin (B3T; Promega; 1:1000), mouse nestin (BD Biosciences; 1:200), rabbit glial fibrillary acidic protein (GFAP; Sigma; 1:160), rabbit oligodendrocyte transcription factor 1 (Olig1; Chemicon; 1:200), or caspase-3 (Sigma, 1:10) for 2 hours. They were then rinsed and incubated with species-specific Alexa Fluor 647 secondary antibodies (Molecular Probes; 1:200) for 1 hour, and rinsed again. Cells in chamber slides were also stained with DAPI (1:35000) for 5 minutes, rinsed again, and stored in 1× PBS at 4° C. […]
The slides were viewed using a Zeiss Axiovert 200 microscope with a Zeiss Mrc camera, and images were captured through Axiovert 4.0 software. Expression of each marker was quantified by the ratio of the area of fluorescence for each marker to the area of fluorescence for the GFP labeling. Results are expressed as mean±coefficient of variation.

B1: CNTF: Recombinant human ciliary neurotrophic factor with BSA carrier (R&D Systems) (protein, UniProt P26441 1-200, looked up)
Ciliary neurotrophic factor: MAFTEHSPLTPHRRDLCSRSIWLARKIRSDLTALTESYVKHQGLNKNINLDSADGMPVASTDQWSELTEAERLQENLQAYRTFHVLLARLLEDQQVHFTPTEGDFHQAIHTLLLQVAAFAYQIEELMILLEYKIPRNEADGMPINVGDGGLFEKKLWGLKVLQELSQWTVRSIHDLRFISSHQTGIPARGSHYIANNKKM
modifications: BSA carrier
- migration of NSCs out of neurospheres (hydrogel added to culture medium): increased migration
- GFAP expression (immunocytochemistry): upregulation of GFAP
- nestin expression (immunocytochemistry): downregulation of nestin
